Experimental data: PMC12712053

Key:
[1] = target: human Mre11 core (HsMre11c) (human); test: native gel or EMSA
[2] = target: human Mre11 core (HsMre11c) (human); test: SEC

- stoichiometry N [1]: 2
- stoichiometry N [2]: 2
Substance: human Mre11 core (HsMre11c) (domain or fragment)
